# According to patent US7033773B1, “Screening assays for G protein coupled receptor agonists and antagonists” (The General Hospital Corporation, priority 1997, dated 2006):
# Tests used:
# Assay type in all cases: cell-based
# rat PTHR [1] = target: T1, rat PTHR (Rattus norvegicus, UniProt P25961); test: IP3 production (PLC activation) in LLC-PK1 cells expressing rat PTHR
# T1 construct: expressed in transfected cells; host or cells: LLC-PK1 porcine renal epithelial cells (EW5; also EW29, AR-C38, AR-B44)
# T1 sequence (P25961 27-591): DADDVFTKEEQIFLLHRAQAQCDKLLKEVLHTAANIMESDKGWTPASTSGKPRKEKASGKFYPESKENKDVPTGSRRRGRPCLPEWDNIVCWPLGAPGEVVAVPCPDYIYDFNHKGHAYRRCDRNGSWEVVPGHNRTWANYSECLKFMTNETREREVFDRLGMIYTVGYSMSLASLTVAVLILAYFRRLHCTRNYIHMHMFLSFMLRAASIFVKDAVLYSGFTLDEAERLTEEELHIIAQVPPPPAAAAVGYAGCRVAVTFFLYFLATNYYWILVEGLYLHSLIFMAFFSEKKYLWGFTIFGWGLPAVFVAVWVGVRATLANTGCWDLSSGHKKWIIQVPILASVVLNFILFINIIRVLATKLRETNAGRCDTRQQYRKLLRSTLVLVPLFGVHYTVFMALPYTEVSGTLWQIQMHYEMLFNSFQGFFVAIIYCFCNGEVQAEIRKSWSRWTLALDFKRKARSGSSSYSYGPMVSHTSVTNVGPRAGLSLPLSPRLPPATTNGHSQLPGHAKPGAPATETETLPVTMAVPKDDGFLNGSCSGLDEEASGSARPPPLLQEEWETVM
# Procedure: (§1) Cells were seeded into 24-well plates at a density of 2.5×10^5 cells/well and cultured for a further 2 days before study. The cells were labeled at 37° C. for 16 h before assay with 3 uCi/ml of [^3H]myo-inositol in assay medium (serum- and inositol-free DMEM (GIBCO-BRL, Grand Island, N.Y.) supplemented with 0.1% BSA). After washing the cells with prewarmed assay medium containing 30 mM LiCl, they were incubated with 0.25 ml of assay medium containing 30 mM LiCl and stimulators (or vehicle) at 37° C. for various intervals(1-30 min). IP3 formation was arrested by aspiration and immediate addition of 0.5 ml of ice-cold 5% TCA. The acid extracts then were extracted twice with two volumes of water-saturated ether and adjusted to pH 7.4 with concentrated NaOH and Tris base (final concentration=10 mM) prior to chromatography on AG 1×8 anion-exchange columns (Bio-Rad, Richmond, Calif.), as previously described (Guo, J., et al., Endocrinology 136:3884-3891 (1995)). After eluting other fractions (free [^3H]myo-inositol, glycerophosphate inositol, IP1, and IP2), IP3 fractions were collected and their content of radioactivity was determined by liquid scintillation spectrometry (Beckman, model LS 6000IC).
# Responses to hPTH(1-34) or hPTH(1-31) (1000 nM) were measured in EW5 cells, which express 320,000 rat PTHRs per cell. Each value is the mean±SEM of a representative experiment performed in triplicate. Similar results were obtained in at least 3 individual experiments. The modest reduction in IP3 formation observed with hPTH(1-31) relative to hPTH(1-34) was confirmed in 3 other LLC-PK1 cell lines that expressed rat PTHRs (i.e. EW29, AR-C38 and AR-B44, which express 190,000, 630,000 and 800,000 PTHRs/cell, respectively), in which maximal IP3 formation after hPTH(1-31) (as % of hPTH(1-34) effect) was 75%, 77% and 64%, respectively.
# rat PTHR [2] = target: T1, rat PTHR; test: u-PA secretion bioassay in LLC-PK1 cells expressing rat PTHR
# human PTH/PTHrP receptor = target: T2, human PTH/PTHrP receptor (Homo sapiens, UniProt Q03431); test: IP3 production (PLC activation) in LLC-PK1 cells expressing human PTHR; parameters: transfected with a full-length human PTH/PTHrP receptor cDNA; expressed in transfected cells; conditions: for formation of IP3 (activation of phospholipase-C): peptide 1000 nM, mean±SEM
# T2 sequence (Q03431 27-593): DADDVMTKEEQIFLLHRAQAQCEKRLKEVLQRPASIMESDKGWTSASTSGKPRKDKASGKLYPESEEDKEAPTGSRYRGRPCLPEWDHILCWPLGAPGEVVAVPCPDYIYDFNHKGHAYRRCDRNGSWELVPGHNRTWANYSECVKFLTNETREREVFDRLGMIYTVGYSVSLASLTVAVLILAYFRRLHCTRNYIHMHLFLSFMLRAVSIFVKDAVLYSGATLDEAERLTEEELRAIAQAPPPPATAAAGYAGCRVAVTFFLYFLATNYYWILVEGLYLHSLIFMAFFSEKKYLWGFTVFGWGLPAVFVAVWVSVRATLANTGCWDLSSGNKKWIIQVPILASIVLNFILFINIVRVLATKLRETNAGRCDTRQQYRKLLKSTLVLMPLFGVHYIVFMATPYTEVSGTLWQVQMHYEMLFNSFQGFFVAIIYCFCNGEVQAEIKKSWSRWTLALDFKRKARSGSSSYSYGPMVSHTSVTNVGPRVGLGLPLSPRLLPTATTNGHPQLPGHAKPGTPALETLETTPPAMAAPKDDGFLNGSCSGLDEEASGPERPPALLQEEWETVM
# Procedure: as §1
# HKRK B7 cells and HKRK B28 cells, previously loaded with [^3H]myo-inositol, were incubated with each peptide (1000 nM) for 30 min or 4 min, respectively. The formation of IP3 is expressed as a percentage of the amount measured in vehicle-treated controls. Values shown are means±SEM of triplicate determinations.
# [3] = EW5 cells, 320,000 rat PTHRs per cell, peptide 1000 nM, mean±SEM
substance,measurement,setting,value
hPTH(1-31),maximal IP3 formation (as % of hPTH(1-34) effect),"rat PTHR [1]; AR-B44 cells, 800,000 rat PTHRs/cell",64%
same,maximal IP3 formation (as % of hPTH(1-34) effect),"rat PTHR [1]; AR-C38 cells, 630,000 rat PTHRs/cell",77%
same,maximal IP3 generation relative to that by hPTH(1-34),rat PTHR [1]; EW5 cells (and 3 other rPTHR-expressing cell lines),approximately 70%
same,IP3 Formation,rat PTHR [1]; [3],316 ± 35 % of basal
same,maximal IP3 formation (as % of hPTH(1-34) effect),"rat PTHR [1]; EW29 cells, 190,000 rat PTHRs/cell",75%
same,maximal PLC activation as % of the maximal response to hPTH(1-34),rat PTHR [1]; LLC-PK1 cells that expressed rat PTHRs,60%
same,reduction of potency for PLC/PKC activation relative to hPTH(1-34),rat PTHR [1]; via the rat PTHR,40%
same,u-PA Activity,rat PTHR [2]; [3],41.2 ± 1.2 units/well
same,u-PA production at 16 hr (in words),"rat PTHR [2]; EW5 cells, 100 nM of either peptide",identical
same,activation of PLC (in words),"human PTH/PTHrP receptor; 1000 nM, HKRK B28 at 4 min and HKRK B7 at 30 min",stimulated PLC equivalently to hPTH(1-34)
same,formation of IP3 (activation of phospholipase-C),"human PTH/PTHrP receptor; HKRK B7 cells, 30 min stimulation",275 ± 21 percentage of vehicle-treated
same,formation of IP3 (activation of phospholipase-C),"human PTH/PTHrP receptor; HKRK B28 cells, 4 min stimulation",170 ± 14 percentage of vehicle-treated
